Laboratory results reported in US20120108503A1.

Target: hepatic leptin receptor (rat) (UniProt Q62959)
Assay: cell-based or functional assay

UniProt Q62959, sequence (Q62959 22-1162): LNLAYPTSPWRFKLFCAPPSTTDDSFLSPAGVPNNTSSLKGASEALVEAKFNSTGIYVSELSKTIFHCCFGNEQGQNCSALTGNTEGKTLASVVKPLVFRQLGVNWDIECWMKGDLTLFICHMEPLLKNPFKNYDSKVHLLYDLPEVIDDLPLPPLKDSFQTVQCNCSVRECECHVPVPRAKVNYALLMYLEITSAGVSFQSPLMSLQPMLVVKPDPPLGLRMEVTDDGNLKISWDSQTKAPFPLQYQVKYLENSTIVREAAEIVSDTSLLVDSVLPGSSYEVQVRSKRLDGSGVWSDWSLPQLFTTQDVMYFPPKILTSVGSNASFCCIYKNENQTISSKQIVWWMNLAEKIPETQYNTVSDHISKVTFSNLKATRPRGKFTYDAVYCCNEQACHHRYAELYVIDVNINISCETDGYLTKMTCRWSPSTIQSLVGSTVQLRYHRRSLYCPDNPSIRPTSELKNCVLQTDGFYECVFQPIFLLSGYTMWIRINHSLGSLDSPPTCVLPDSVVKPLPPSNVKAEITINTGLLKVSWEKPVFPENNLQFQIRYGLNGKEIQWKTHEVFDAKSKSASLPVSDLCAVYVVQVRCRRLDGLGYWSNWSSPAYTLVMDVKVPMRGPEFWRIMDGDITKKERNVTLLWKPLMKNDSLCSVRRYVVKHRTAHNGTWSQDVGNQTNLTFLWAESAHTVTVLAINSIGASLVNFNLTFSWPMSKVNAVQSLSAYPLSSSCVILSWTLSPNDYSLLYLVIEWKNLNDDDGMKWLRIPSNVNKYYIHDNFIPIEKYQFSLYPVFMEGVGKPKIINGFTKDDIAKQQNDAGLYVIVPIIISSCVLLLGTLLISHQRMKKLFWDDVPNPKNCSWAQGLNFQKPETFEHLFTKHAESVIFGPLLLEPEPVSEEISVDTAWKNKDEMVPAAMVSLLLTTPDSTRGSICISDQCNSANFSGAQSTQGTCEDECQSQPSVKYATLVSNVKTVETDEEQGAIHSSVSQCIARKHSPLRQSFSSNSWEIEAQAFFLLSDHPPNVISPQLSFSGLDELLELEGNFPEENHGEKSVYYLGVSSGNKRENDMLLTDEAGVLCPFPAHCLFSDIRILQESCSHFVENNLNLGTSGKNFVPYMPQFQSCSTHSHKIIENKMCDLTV

## leptin expressed in vivo from adenovirus containing the leptin cDNA (Adv-leptin) (ligand)
  hepatic phosho-STAT-3: 3 fold
